Numbering of substitutions follows the chain as printed.
B1: SSAP_235: SEQ ID NO: 404; Streptomyces sp. adm13(2018) (protein, listed as Streptomyces sp.)
chain: SQIGNEIARQSHSPAAIIEQHKADLAVVAASHVRVDTFARLAVGVLRQNEKLAAAAANNPGSLMSALMTAARLGLEPGTEQFYLRPIKRKGQLEVQGIVGYQGIVELIYNAGAAQSVVVEVVRARDEFAWTPGALDEHRPPRWPGAMKQPHHKVDWFGDRGPLVGAYAYAVMQGGAISKVVVLNRDHIARAKAKSDGADTDYSPWRTDEEAMWLKTAARRLGKWVPTSAEKRTGVIERLDTPPAPLNEIDPDEDDEPIDGELVD
B2: SSAP_16: SEQ ID NO: 185 (protein)
chain: MAKENYSDPNGKLLNSITTFEVNGEEVKLSGNIIRDYLVSGNAEVTDQEIIMFLQLCKYQKLNPFLNEAYLVKFKNTKGPDKPAQIIVSKEAFMKRAETHEQYDGFEAGVIVERGGEIIELEGAVSLASDKLLGGWAKVFRKDRNRPVSVRISEKEFNKRQSTWNTMPLTMMRKTAVVNAMREAFPDNLGAMYTEEEQGSLQNTETSVQQEIKQNANAEVLDIPSQQNEVPDFKEVREPEHVEMPPIYGEQQSTPPARPY
B3: SSAP_6: SEQ ID NO: 175 (protein)
chain: STALATLAGKLAERVGMDSVDPQELITTLRQTAFKGDASDAQFIALLIVANQYGLNPWTKEIYAFPDKQNGIVPVVGVDGWSRIINENQQFDGMDFEQDNESCTCRIYRKDRNHPICVTEWMDECRREPFKTREGREITGPWQSHPKRMLRHKAMIQCARLAFGFAGIYDKDEAERIVENTAYTAERQPERDITPVNDETMQEINTLLIALDKTWDDDLLPLCSQIFRRDIRASSELTQAEAVKALGFLKQKATEQKVAA
B4: SSAP_193: SEQ ID NO: 362; Mesotoga sp. TolDC (protein, listed as Mesotoga sp.)
chain: KASEIASMVKKEDERRNHKPDPLAGIVKNLTSIKGEIANALPDAGITPERMIRIVVTLLRQNKSLAEAAMQNPASLLGAVMMAAQLGLDPTNGLDQCALVPRKGKVCFDIMYEGLVELGYRSDRMESIVARTVYEKDTFSLKYGLNEELVHIPYLDGDPGESKGYYMVGKLKGGGNIIVYMTKEQVHKIRDRYSVAYKAGLSGSRKDSPWFTSEDRMGEKTVVKAGFRWIPKSPIIRTALALDETAREASRLPMRN
B5: SSAP_305: SEQ ID NO: 474 in b312 (Table 9 prints 424); Clostridium akagii (protein, listed as Clostridium akagii)
chain: ATSESLKNQLVNKETRPPKDPFKALVYSAGIKKRFEDMLDKQANGFITSLLNLKQDKLKSCDDFTVLGSALKAAALKLPIDPNLGFAWIIPFKNHGKLEAQFQIGYKGFIQMAQRSGQYKKLNVTEIYEGQLKSFNPLTEEIVLDLDNIKSDLRKINKRYLIVMRMNLLALHLRKISKG
B6: SSAP_262: SEQ ID NO: 431; YqaK Schleiferilactobacillus shenzhenensis LY-73 (protein, listed as Schleiferilactobacillus shenzhenensis)
chain: SAVSESKDLQHVDQLSVLNSAMTAASLNLPINQNLGFFYLVPYKGIAQAQMGYKGYIQLAQRSGQYQRLNAIPVYADEFGSWNPLTEELDYTPHFEDRKASDKPVGYVGFFKLANGFEKTVYWSRKQIEAHRDRFSKSSKSSASPWNTDFDAMALKTVLRNLITKWGPMTTDIQRANDADEGDYKNDLSTDTSEPKDVTPGASLEQFLGETDQQQKPATKPAPKKKAEEAKPNDLKPDVTHDPNEHTEQTSLSDDDLPFD
B7: SSAP_197: SEQ ID NO: 366; Arsenophonus sp. ENCA (protein, listed as Arsenophonus sp.)
chain: NTELETMNNVYDNLQSVIMQQGIAALLPAQVTPEQFTRTAATALIENVDLQNADKQSLVLALTRCAKDGLMPDGREAALVVRSTKVNKQFVKKAVYMPMVDGVIKRARQSGQVANIIAKVVYSQDEFEYVIDENGEHLTHRPAFVDGDDIVKVYAFAKLNSGELVVEVMSRAGVEKIRDTVQSAKYDSSPWVKWFDRMALKTVIHRLARRLPCASELFSLFEVYEDANSTEKTLRMAPASFKRLSIN
B8: SSAP_158: SEQ ID NO: 327; Nakamurella lactea (protein)
chain: ASNLAARAAEQVEQQTAPNRPPTIKEQIGRMESQFALAMPRGSEAAQLVRDAITAINTNPQLAECTPASVLGALMTCAQLGLRPGVLGHAWVLPFRSKGVMQAQLVIGYQGLVELAHRTGQVASLIAREVHERDHFDVDYGLADSLIHKPLLNGDRGPVTGYYAIVKFKGGGHSFIYASKADVEAHRDKFSKMKSFGPWVDNFDSMALKTVVRMLAKWMPKSTEFANAISADEGVRVDYSPTADVAQATEYVQPQLEEAPVEGVVVSEGGES
modifications: Nakamurella lacteal
notes: Nakamurella lactea
B9: SSAP_4: SEQ ID NO: 166 (protein)
chain: MSTALATLAGKLAERVGMDSVDPQELITTLRQTAFKGDASDAQFIALLIVANQYGLNPWTKEIYAFPDKQNGIVPVVGVDGWSRIINENQQFDGMDFEQDNESCTCRIYRKDRNHPICVTEWMDECRREPFKTREGREITGPWQSHPKRMLRHKAMIQCARLAFGFAGIYDKDEAERIVENTAYTAERQPERDITPVNDETMQEINTLLIALDKTWDDDLLPLCSQIFRRDIRASSELTQAEAVKALGFLKQKAAEQKVAA
modifications: Lambda
B10: SSAP_12: SEQ ID NO: 181 (protein)
chain: B3 chain with T254S

system: mammalian cells; assay: Arrayed SSAP library screening, cell viability by live cell counts via flow cytometry; assay type: cell-based; conditions: not given
Method: (§1) Each SSAP encoding plasmid was tested in duplicate, including a negative control (same plasmid encoding Flag_HA which is not expected to promote gene editing). Transfections were in 96-well plates and transfection efficiency was estimated to be 50%.
(§2) Three days after transfection, mKate positive cells and cell viability were quantified across all replicates, along with positive (original RecT SSAP) and negative (Flag-HA control protein) controls. […] At the same time, the cell viability was measured by live cell counts via flow cytometry, to help quantify the fitness effect of SSAP on mammalian cells.
(§3) SSAP proteins are identified by Uniparc deposit number and SEQ ID NO. Alignment numbers correspond to SSAPs in FIGS. 58, 59, and 60.

Row | Molecule | Cell Viability (Average, two targets)
1 | B1 | 0.8847
2 | B2 | 1.146
3 | B3 | 1.282
4 | B4 | 1.147
5 | B5 | 0.5578
6 | B6 | 1.122
7 | B7 | 1.021
8 | B8 | 0.9945
9 | B9 | 1.192
10 | B10 | 1.291

system: gene editing with dCas9; assay: Screen of 322 new SSAP proteins, gene editing activity with dCas9 (Table 5); assay type: cell-based; design: dCas9 with SSAP activity: scale not given here; conditions: not given
How it was run: (§4)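 Read-out is gene editing activity. Candidates come from sequence data mining, are made synthetically, and are tested alongside either nuclease-active Cas9 or catalytically dead dCas9.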

Row | Molecule | dCas9 with SSAP activity
11 | B1 | −5.457
12 | B2 | −5.666
13 | B3 | −5.703
14 | B4 | −5.951
15 | B5 | −6.032
16 | B6 | −6.590
17 | B7 | −6.622
18 | B8 | −6.910
19 | B9 | −6.997
20 | B10 | −7.567

same assay, conditions: normalized

Row | Molecule | dCas9 with SSAP activity (normalized)
21 | B1 | −1.152
22 | B2 | −1.047
23 | B3 | −1.399
24 | B4 | −1.083
25 | B5 | −1.721
26 | B6 | −1.417
27 | B7 | −1.370
28 | B8 | −1.386
29 | B9 | −1.447
30 | B10 | −1.196

system: endogenous genome targets (ACTB, HSP90AA1); assay: Arrayed SSAP library screening, mKate knock-in assay (editing efficiency); assay type: cell-based; conditions: fold over negative control (Flag_HA); average of HSP90 and ACTB; 3 days after transfection
Method: Arrayed SSAP library screening on endogenous genome targets (ACTB. HSP90AA1) using mKate knock-in assay.
SSAP-encoding plasmids were purified and quantified.
as §1, §2, §3

Row | Molecule | Editing Efficiency (Normalized, Average, two targets)
31 | B1 | 4.251
32 | B2 | 8.461
33 | B3 | 4.879
34 | B4 | 5.034
35 | B5 | 4.612
36 | B6 | 3.676
37 | B7 | 5.661
38 | B8 | 5.44
39 | B9 | 5.57
40 | B10 | 4.263

same assay, conditions: percent of mKate knock-in; average of HSP90 and ACTB; 3 days after transfection

Row | Molecule | Editing Efficiency (Absolute, Average, two targets)
41 | B1 | 10.53
42 | B2 | 20.95
43 | B3 | 12.075
44 | B4 | 12.465
45 | B5 | 11.425
46 | B6 | 9.1025
47 | B7 | 14.025
48 | B8 | 13.45
49 | B9 | 13.8
50 | B10 | 10.5525

system: gene editing with Cas9 and dCas9; assay: Screen of 322 new SSAP proteins, activity across all experiments (Cas9 and dCas9, Table 5); assay type: cell-based; design: scale not given here; conditions: not given
How it was run: as §4

Row | Molecule | Activity across all experiments
51 | B1 | −5.237
52 | B2 | −3.262
53 | B3 | −6.879
54 | B4 | −3.196
55 | B5 | −2.644
56 | B6 | −4.769
57 | B7 | −4.703
58 | B8 | −4.070
59 | B9 | −4.940
60 | B10 | −7.690

system: gene editing with Cas9; assay: Screen of 322 new SSAP proteins, gene editing activity with Cas9 (Table 5); assay type: cell-based; design: Cas9 with SSAP activity: scale not given here; conditions: not given
How it was run: as §4

Row | Molecule | Cas9 with SSAP activity
61 | B1 | −5.016
62 | B2 | −0.858
63 | B3 | −8.056
64 | B4 | −0.442
65 | B5 | 0.745
66 | B6 | −2.947
67 | B7 | −2.785
68 | B8 | −1.229
69 | B9 | −2.882
70 | B10 | −7.814

same assay, conditions: normalized

Row | Molecule | Cas9 with SSAP activity (normalized)
71 | B1 | −0.970
72 | B2 | −0.452
73 | B4 | −0.140
74 | B5 | 0.408
75 | B6 | −0.511
76 | B7 | −1.134
77 | B8 | −0.520
78 | B9 | −0.474
79 | B10 | −1.324
